Laboratory results reported in article PMC2924388.

Columns and labels:
[1] = target: HIV-1 M-type (NL4.3) capsid N-terminal domain (HIV-1 M-type (NL4.3)) (UniProt P12493); experiment: ITC; MicroCal ITC200; cyclophilin (typical concentration 1.4 mM) in the syringe, capsid (typical concentration 120 µM) in the cell; 50 mM KPO4 pH 7.4, 100 mM NaCl, 1 mM DTT; 15°C; one-state model
[2] = target: HIV-2 capsid N-terminal domain with an alanine inserted at position 88 (HIV-2 (ROD)); experiment: as above
[3] = target: HIV-2 (ROD) capsid N-terminal domain (HIV-2 (ROD)); experiment: as above
[4] = target: HIV-2 (ROD) capsid N-terminal domain (HIV-2 (ROD))
[5] = target: HIV-1 M-type (NL4.3) capsid N-terminal domain (HIV-1 M-type (NL4.3)) (UniProt P12493)

Substance	Kd [1]	Kd [2]	Kd [3]	restriction of the infectivity of the HIV-2 vector in CRFK cells expressing whole Mafa TRIMCyp2 Cyp K143E; completely rescued by 5 µM cyclosporine (orders of magnitude) [4]	restriction of the infectivity of the HIV-1 vector in CRFK cells expressing whole Mafa TRIMCyp2 Cyp K143E; partially rescued by 5 µM cyclosporine (orders of magnitude) [5]
CypA domain of Macaca fascicularis TRIMCyp2 (Mafa TRIMCyp2) (domain or fragment)	12 µM	207 µM			
CypA domain of Mafa TRIMCyp2 with Cyp K143E (K446E in TRIMCyp) (domain or fragment)	12 µM	9 µM	13 µM	2	2
